Patent publication US20100330106A1 (Regeneron, published 2010)

Biological target: human DII4 (delta-like ligand 4) (human, UniProt Q9NR61 27-524, limits assumed)
Experiment: cell-based or functional assay

Chain of human DII4 (delta-like ligand 4) (Q9NR61 27-524 limits assumed, stated change not applied): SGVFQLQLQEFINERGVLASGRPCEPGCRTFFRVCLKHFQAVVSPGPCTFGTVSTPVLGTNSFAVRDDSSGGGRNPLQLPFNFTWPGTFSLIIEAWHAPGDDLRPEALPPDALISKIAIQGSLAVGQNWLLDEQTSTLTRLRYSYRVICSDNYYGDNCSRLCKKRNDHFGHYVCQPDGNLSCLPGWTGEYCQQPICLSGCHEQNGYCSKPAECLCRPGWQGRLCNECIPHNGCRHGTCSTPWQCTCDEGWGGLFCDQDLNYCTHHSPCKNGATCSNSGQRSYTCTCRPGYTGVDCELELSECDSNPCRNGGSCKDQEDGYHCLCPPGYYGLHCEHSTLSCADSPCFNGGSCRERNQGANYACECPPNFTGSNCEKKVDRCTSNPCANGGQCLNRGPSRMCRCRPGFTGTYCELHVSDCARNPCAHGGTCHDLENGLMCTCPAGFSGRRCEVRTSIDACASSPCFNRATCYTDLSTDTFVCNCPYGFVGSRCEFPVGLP

Hey-1 transcript, Post-treatment vs. Pre-treatment ratio (microarray, patient 1, dose 0.25 mg/kg, 24 hours after REGN421 administration): 0.52 ratio
Hey-1 transcript, Post-treatment vs. Pre-treatment ratio (microarray, patient 2, dose 0.25 mg/kg, 24 hours after REGN421 administration): 0.85 ratio
Hey-1 transcript, Post-treatment vs. Pre-treatment ratio (microarray, patient 3, dose 0.25 mg/kg, 24 hours after REGN421 administration): 0.77 ratio
Hey-1 transcript, Post-treatment vs. Pre-treatment ratio (microarray, patient 4, dose 0.25 mg/kg, 24 hours after REGN421 administration): 0.51 ratio
Hey-1 transcript, Post-treatment vs. Pre-treatment ratio (microarray, patient 5, dose 0.25 mg/kg, 24 hours after REGN421 administration): 0.61 ratio
Hey-1 transcript, Post-treatment vs. Pre-treatment ratio (microarray, patient 6, dose 0.25 mg/kg, 24 hours after REGN421 administration): 0.55 ratio
Hey-1 transcript, Post-treatment vs. Pre-treatment ratio (microarray, patient 7, dose 0.25 mg/kg, 24 hours after REGN421 administration): 0.75 ratio
Hey-1 transcript, Post-treatment vs. Pre-treatment ratio (microarray, patient 8, dose 0.5 mg/kg, 24 hours after REGN421 administration): 0.68 ratio
Hey-1 transcript, Post-treatment vs. Pre-treatment ratio (microarray, patient 9, dose 0.5 mg/kg, 24 hours after REGN421 administration): 0.82 ratio
B1: REGN421 (antibody, V domains shown)
VH: QVQLVESGGGVVQPGRSLRLSCAASGFTFSSYGMHWVRQAPGKGLEWVSFLWYDGTNKNYVESVKGRFTISRDNSKNMLYLEMNSLRAEDTAVYYCARDHDFRSGYEGWFDPWGQGTLVTVSS
VL: EIVLTQSPATLSLSPGERATLSCRASQSVSSYLAWYQQKPGQAPRLLIYDASNRATGIPARFSGSGSGTDFTLTISSLEPEDFAVYYCQHRSNWPPTFGGGTKVEIK
